Results taken from paper PMC4284802, “The tumour suppressor DLC2 ensures mitotic fidelity by coordinating spindle positioning and cell–cell adhesion” (Nature Communications, 2014).

Molecular target: T1, His-tagged recombinant protein containing the forkhead-associated (FHA) domain of Kif1B (residues 367-999) (human, UniProt O60333-2 367-999)
T1 construct: cloned into pRSET-A; Vector pRSET-A; also called Kif1B FHA domain; His-Kif1B; source: E. coli BL21pLysS, purified
T1 sequence (looked up): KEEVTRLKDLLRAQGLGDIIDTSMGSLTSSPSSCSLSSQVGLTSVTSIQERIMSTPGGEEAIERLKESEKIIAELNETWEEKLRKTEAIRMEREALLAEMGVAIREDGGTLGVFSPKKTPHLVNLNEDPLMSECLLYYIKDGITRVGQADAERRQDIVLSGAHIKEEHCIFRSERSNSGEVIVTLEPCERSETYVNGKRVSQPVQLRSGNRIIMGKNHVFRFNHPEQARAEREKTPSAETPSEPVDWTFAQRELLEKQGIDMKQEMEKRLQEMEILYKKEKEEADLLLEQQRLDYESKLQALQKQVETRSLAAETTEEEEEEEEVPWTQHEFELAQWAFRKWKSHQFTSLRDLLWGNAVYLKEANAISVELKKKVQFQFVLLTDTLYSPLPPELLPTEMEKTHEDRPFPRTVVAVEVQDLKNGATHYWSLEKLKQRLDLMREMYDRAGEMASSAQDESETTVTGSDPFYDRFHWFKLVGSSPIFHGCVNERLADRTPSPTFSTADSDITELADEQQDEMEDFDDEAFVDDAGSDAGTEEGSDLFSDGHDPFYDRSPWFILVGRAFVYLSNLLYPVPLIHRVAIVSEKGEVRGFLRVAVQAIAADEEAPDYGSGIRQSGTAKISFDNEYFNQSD
Assay: pull-down; purified GST-SAM domain on glutathione-agarose beads incubated 2 h with recombinant His-tagged Kif1B fusion proteins; immunoblot with anti-GST and anti-His
Conditions: both partners purified

B1: DLC2 SAM domain (residues 1-130) fused to GST (domain or fragment, human, UniProt Q9Y3M8-1 1-130, looked up)
chain: MFSQVPRTPASGCYYLNSMTPEGQEMYLRFDQTTRRSPYRMSRILARHQLVTKIQQEIEAKEACDWLRAAGFPQYAQLYEDSQFPINIVAVKNDHDFLEKDLVEPLCRRLNTLNKCASMKLDVNFQRKKG
notes: cloned into pGEX4T3; Vector pGEX4T3; also called SAM domain construct; GST-fusion protein containing the SAM domain; source: E. coli BL21pLysS, purified (glutathione-agarose)
B1: binds.
